Measured values taken from PMC7729563, “Phospho-Mutant Activity Assays Provide Evidence for the Negative Regulation of Transcriptional Regulator PRE1 by Phosphorylation” (International Journal of Molecular Sciences, 2020).

B1: AD-PRE1 (PACLOBUTRAZOL-RESISTANT-1 fused to GAL4AD) [Arabidopsis thaliana] / BD-IBH1 (ILI1 BINDING bHLH PROTEIN1 fused to GAL4BD) [Arabidopsis thaliana] (parent complex)
chain 1: MSNRRSRQSSSAPRISDNQMIDLVSKLRQILPEIGQRRRSDKASASKVLQETCNYIRNLNREVDNLSERLSQLLESVDEDSPEAAVIRSLLM
chain 2: MASADKLINTDVPEKDVFAFHFLQSLSNLRKQNPFDTPDQKNYRVRKIKKAAYVSMARAAGGSSRLWSRALLRRADKDDNKIVRFSRRKWKISSKRRRSNQRAPVVEEAAERLRNLVPGGGGMETSKLMEETAHYIKCLSMQVKVMQCLVDGLSPK

Variants of: B1
Test: pull-down, band quantification normalized to input; parent: 0.32; read off a plot

response	Variant
~0.13 Pull-down/Input	chain 1 S67E
~0.23 Pull-down/Input	chain 1 S67A

Variants of: B1
Test: yeast two-hybrid, quantitative β-galactosidase assay; parent: 3.9; read off a plot

response	Variant
~2.3 β-gal units	chain 1 S67E
~3.6 β-gal units	chain 1 S67A

Variants of: B1
Test: Ratiometric-Bimolecular Fluorescence Complementation (rBiFC) in tobacco; n = 50 images; parent: 0.42; read off a plot

response	Variant
~0.16 YFP/RFP	chain 1 S67E
